Measured values published in US20200040057A1 (IMMATICS BIOTECHNOLOGIES, published 2020).

B1: SPVFYVQTL (peptide)
peptide: SPVFYVQTL
B2: APFHIDRLF (peptide)
peptide: APFHIDRLF
B3: LVILQHQAM (peptide)
peptide: LVILQHQAM
B4: WPNHIMLVL (peptide)
peptide: WPNHIMLVL
B5: SAQSLHPVL (peptide)
peptide: SAQSLHPVL
B6: FPRTVKHIDAAL (peptide)
peptide: FPRTVKHIDAAL
B7: SPSQTVQRAV (peptide)
peptide: SPSQTVQRAV
B8: FPYSGDKILV (peptide)
peptide: FPYSGDKILV
B9: APRGPAQGEAA (peptide)
peptide: APRGPAQGEAA
B10: NPERHKPSF (peptide)
peptide: NPERHKPSF
B11: VPGSDPARYEFL (peptide)
peptide: VPGSDPARYEFL
B12: HVAQPAVVL (peptide)
peptide: HVAQPAVVL
B13: LPLGGHKSL (peptide)
peptide: LPLGGHKSL
B14: RPLPNSVIHV (peptide)
peptide: RPLPNSVIHV
B15: GSRPVTGSV (peptide)
peptide: GSRPVTGSV
B16: SPSREASAL (peptide)
peptide: SPSREASAL
B17: LPVSPARAL (peptide)
peptide: LPVSPARAL
B18: MPFRNIRSIL (peptide)
peptide: MPFRNIRSIL
B19: RPVQGIPTY (peptide)
peptide: RPVQGIPTY
B20: FPNVYSTLVL (peptide)
peptide: FPNVYSTLVL
B21: GPKKFIVKL (peptide)
peptide: GPKKFIVKL
B22: SVAIAHGVF (peptide)
peptide: SVAIAHGVF
B23: RPYSIYPHGVTF (peptide)
peptide: RPYSIYPHGVTF
B24: VAAAARLTL (peptide)
peptide: VAAAARLTL
B25: SSASFSSELFRH (peptide)
peptide: SSASFSSELFRH
B26: LPVSSPVTL (peptide)
peptide: LPVSSPVTL
B27: TPRIGPKVSL (peptide)
peptide: TPRIGPKVSL
B28: VPRRPARAL (peptide)
peptide: VPRRPARAL
B29: RPRLRDLPAL (peptide)
peptide: RPRLRDLPAL
B30: APTPRPKVL (peptide)
peptide: APTPRPKVL
B31: SPSSVFTSK (peptide)
peptide: SPSSVFTSK
B32: MPRLLRLSL (peptide)
peptide: MPRLLRLSL
B33: YPSPLNKHSF (peptide)
peptide: YPSPLNKHSF
B34: HPNKIKASL (peptide)
peptide: HPNKIKASL
B35: APRGSPPI (peptide)
peptide: APRGSPPI
B36: GPFQRAAL (peptide)
peptide: GPFQRAAL
B37: RPSQLAPATL (peptide)
peptide: RPSQLAPATL
B38: VWEPQGSSRSL (peptide)
peptide: VWEPQGSSRSL
B39: RPSGTAGAAL (peptide)
peptide: RPSGTAGAAL
B40: MPKTNLSKM (peptide)
peptide: MPKTNLSKM
B41: RPPPSRRAVL (peptide)
peptide: RPPPSRRAVL
B42: LPMTVISVL (peptide)
peptide: LPMTVISVL
B43: TVRPKNAAL (peptide)
peptide: TVRPKNAAL
B44: APLKMLAL (peptide)
peptide: APLKMLAL
B45: VPSDITTAF (peptide)
peptide: VPSDITTAF
B46: SPRIPFSTF (peptide)
peptide: SPRIPFSTF
B47: FPRLVGPDFF (peptide)
peptide: FPRLVGPDFF
B48: RLAHVRARL (peptide)
peptide: RLAHVRARL
B49: IPWFIKTAF (peptide)
peptide: IPWFIKTAF
B50: QPRLVPGETL (peptide)
peptide: QPRLVPGETL
B51: VPAQRLGLLL (peptide)
peptide: VPAQRLGLLL
B52: NPIFGRKEL (peptide)
peptide: NPIFGRKEL
B53: VPYYPRANL (peptide)
peptide: VPYYPRANL
B54: RNRQVATAL (peptide)
peptide: RNRQVATAL
B55: RPSFPNLTSF (peptide)
peptide: RPSFPNLTSF
B56: YPMIPPAQL (peptide)
peptide: YPMIPPAQL
B57: IPIRVDQNGAF (peptide)
peptide: IPIRVDQNGAF
B58: RPRQTGALM (peptide)
peptide: RPRQTGALM
B59: VPVSRPVL (peptide)
peptide: VPVSRPVL
B60: VPVSHPVL (peptide)
peptide: VPVSHPVL
B61: VPAQRLGLL (peptide)
peptide: VPAQRLGLL
B62: QPVLPSPAC (peptide)
peptide: QPVLPSPAC
B63: KPKVESQAL (peptide)
peptide: KPKVESQAL
B64: LPSPAHAFRAL (peptide)
peptide: LPSPAHAFRAL
B65: LPALLRSGLTL (peptide)
peptide: LPALLRSGLTL
B66: SPSYTQASL (peptide)
peptide: SPSYTQASL
B67: RPQPQPRPAL (peptide)
peptide: RPQPQPRPAL
B68: RPLPVSPARAL (peptide)
peptide: RPLPVSPARAL
B69: MPAGGGPRSL (peptide)
peptide: MPAGGGPRSL
B70: LPRALMRST (peptide)
peptide: LPRALMRST
B71: APLHGGGSL (peptide)
peptide: APLHGGGSL
B72: KPRTIYSSL (peptide)
peptide: KPRTIYSSL
B73: KTKSLAQQL (peptide)
peptide: KTKSLAQQL
B74: APMAPGRSPL (peptide)
peptide: APMAPGRSPL

Tests used:
HLA-B*07 [1] = biological target: HLA-B*07 (human); assay: UV peptide exchange ELISA; ++++ = yield >75%
HLA-B*07 [2] = biological target: HLA-B*07 (human); assay: UV peptide exchange ELISA; +++ = yield >50

| Binder | peptide exchange yield (HLA-B*07 [1]) [%] | peptide exchange yield (HLA-B*07 [2]) [%] |
| --- | --- | --- |
| B1 | > 75 | – |
| B2 | – | 50 to 75 |
| B3 | – | 50 to 75 |
| B4 | > 75 | – |
| B5 | – | 50 to 75 |
| B6 | > 75 | – |
| B7 | > 75 | – |
| B8 | – | 50 to 75 |
| B9 | > 75 | – |
| B10 | – | 50 to 75 |
| B11 | – | 50 to 75 |
| B12 | – | 50 to 75 |
| B13 | – | 50 to 75 |
| B14 | – | 50 to 75 |
| B15 | – | 50 to 75 |
| B16 | – | 50 to 75 |
| B17 | – | 50 to 75 |
| B18 | – | 50 to 75 |
| B19 | – | 50 to 75 |
| B20 | > 75 | – |
| B21 | – | 50 to 75 |
| B22 | > 75 | – |
| B23 | > 75 | – |
| B24 | – | 50 to 75 |
| B25 | – | 50 to 75 |

| Binder | peptide exchange yield (HLA-B*07 [1]) [%] | peptide exchange yield (HLA-B*07 [2]) [%] |
| --- | --- | --- |
| B26 | > 75 | – |
| B27 | – | 50 to 75 |
| B28 | – | 50 to 75 |
| B29 | – | 50 to 75 |
| B30 | > 75 | – |
| B31 | – | 50 to 75 |
| B32 | – | 50 to 75 |
| B33 | – | 50 to 75 |
| B34 | – | 50 to 75 |
| B35 | – | 50 to 75 |
| B36 | – | 50 to 75 |
| B37 | – | 50 to 75 |
| B38 | – | 50 to 75 |
| B39 | – | 50 to 75 |
| B40 | – | 50 to 75 |
| B41 | – | 50 to 75 |
| B42 | > 75 | – |
| B43 | – | 50 to 75 |
| B44 | > 75 | – |
| B45 | – | 50 to 75 |
| B46 | > 75 | – |
| B47 | > 75 | – |
| B48 | – | 50 to 75 |
| B49 | > 75 | – |
| B50 | > 75 | – |

| Binder | peptide exchange yield (HLA-B*07 [1]) [%] | peptide exchange yield (HLA-B*07 [2]) [%] |
| --- | --- | --- |
| B51 | – | 50 to 75 |
| B52 | – | 50 to 75 |
| B53 | – | 50 to 75 |
| B54 | – | 50 to 75 |
| B55 | > 75 | – |
| B56 | – | 50 to 75 |
| B57 | – | 50 to 75 |
| B58 | > 75 | – |
| B59 | > 75 | – |
| B60 | > 75 | – |
| B61 | > 75 | – |
| B62 | > 75 | – |
| B63 | > 75 | – |
| B64 | – | 50 to 75 |
| B65 | > 75 | – |
| B66 | > 75 | – |
| B67 | > 75 | – |
| B68 | – | 50 to 75 |
| B69 | > 75 | – |
| B70 | – | 50 to 75 |
| B71 | – | 50 to 75 |
| B72 | > 75 | – |
| B73 | – | 50 to 75 |
| B74 | > 75 | – |
